Two molecules from patent publication EP4324846A1 (Eberhard Karls Universität Tübingen, Medizinische Fakultät, dated 2024) can be followed below.

Assay [1] concerns the target T1, d3-wt (human EGFR domain 3) (human, UniProt P00533 337-504, limits assumed).
T1 construct: Expressed in E. coli from pET-28a(+) and purified on a HisTrap column; Monomeric fraction used; also called wild type d3; wild-type d3 domain
As to the kind of experiment: SPR (Biacore X100), HB-EGF immobilized on CM5, multi-cycle kinetics. Background: SPR reads the build-up and loss of mass on a sensor chip optically.

Assay [2] has as its target T2, EGF (Peprotech AF-100-15) (UniProt P01133 971-1023).
T2 construct: Immobilized on a CM5 chip by amine coupling; Also added at 400 pM in the A431 proliferation assay; also called epidermal growth factor
As to the kind of experiment: SPR, EGF immobilized; reference d3-wt.

Assay [3] addresses T2, EGF (Peprotech AF-100-15). As to the kind of experiment: SPR (Biacore X100), EGF immobilized on CM5, multi-cycle kinetics.

T2 sequence (P01133 971-1023 limits assumed): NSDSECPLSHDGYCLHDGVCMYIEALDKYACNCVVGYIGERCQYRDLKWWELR

B1: HB-EGF (R&D Systems 259-HE-050/CF) (ligand, UniProt Q99075 63-148, looked up)
chain: DLQEADLDLLRVTLSSKPQALATPNKEEHGKRKKKGKGLGKKRDPCLRKYKDFCIHGECKYVKELRAPSCICHPGYHGERCHGLSL
notes: Immobilized on a CM5 chip by amine coupling
In assay [1], B1 showed a Kd of 263 nM.

B2: dd3-1 (designed binder)
chain: ANGIGIGEFKDSLSIWAWNIKHFKNARSISGDLHILPVAFRGDSFTHTPPLEPKELEILKTVKEITGYLLVQAWPENRTDLHAFENLEIIRGRTKQHGQFSLAVVSLNVTSLGLRSLKEISDGDVIMSGNKNLKMANEMNWKKMFGTSGQKTKIISNRGE
notes: Expressed in E. coli from pET-28a(+) and purified on a HisTrap column; also called design
For the molecule B2, in assay [2], the “fold tighter binding than d3-wt” value came to 5 fold. Moreover, the affinity in assay [3], expressed as Kd, was 10 nM.

For orientation: Kd means the concentration at which binding is half-saturated.
